From paper PMC11503464, “Copper-61 is an advantageous alternative to gallium-68 for PET imaging of somatostatin receptor-expressing tumors: a head-to-head comparative preclinical study” (Frontiers in Nuclear Medicine, 2024)

Tests used:
[1] = in vivo; cited from earlier work
[2] = mouse, in vivo; cited from earlier work
in vivo [3] = settings: female, athymic nude-Foxn1^nu/Foxn1^+, mouse, 200 pmol, total radioactivity
[4] = format: physicochemical
Protocol: Briefly, the radiotracer (10 µl, 1 µM) was added to 1 ml of a 1:1 pre-saturated mixture of 1-octanol and phosphate-buffered saline (PBS pH 7.4). The solution was vortexed for 30 min and then centrifuged at 3,000 rpm to achieve phase separation. Aliquots of 0.1 ml from each phase were collected and measured in a γ-counter. The distribution coefficient was calculated as the average of the logarithmic values (n = 3) of the ratio between the radioactivity in the organic and PBS phases. [^68Ga]Ga-DOTA-TOC was used as a reference.

HEK-SST2 cells [5] = test: Efflux from HEK-SST2 cells; format: cell-based, human
Protocol: The efflux was studied after 1 h incubation of the cells with the radiotracer at 37°C and the removal of the unbound fraction and the cell membrane-bound fraction, as described above (acid-wash). The cells were then incubated with fresh medium at 37°C either alone or with a competitor (1,000-fold excess of DOTA-TOC, 2.5 µM/well) for 10, 20, 30, 45, 60, 90, 120, 150, 180, and 240 min. At each time point, the efflux (or retention) was measured after the removal of the medium without or with the competitor and replacement with fresh pre-warmed (37°C) medium alone or with the competitor. At the end of the experiment, the cells were detached using 1 M NaOH at 37°C and collected to determine the remaining cell-associated radiotracer.

[6] = set-up: species or system mice; settings: mouse, in vivo
Protocol: (§1) [^64Cu]CuCl2 was provided by the University Hospital Tübingen, Germany. […] OLINDA/EXM 1.0 was used to integrate the fitted time-activity curves and to estimate the organ and effective doses using the whole-body adult female model. For all the calculations, the assumption was made that the mouse biodistribution, determined as the %IA/organ, was the same as the human biodistribution. The dosimetry estimates were performed as previously described ([14]).

HEK-SST2 cells [7] = test: Cellular uptake and distribution on intact HEK-SST2 cells; format: cell-based, human; settings: specific uptake, after 4 h at 37°C
Protocol: At the defined time points, the medium was removed, and the cells were washed twice with ice-cold PBS. The cells were then treated twice for 5 min with ice-cold glycine solution (0.05 M, pH 2.8) to detach the cell membrane-bound fraction (acid released). Afterward, the cells containing the internalized fraction were detached using NaOH 1 M at 37°C and collected for measurement. [^68Ga]Ga-DOTA-TOC was evaluated as a reference.

[8] = Stability of labeling solutions at room temperature by radio-HPLC; format: physicochemical; settings: labeling solution stored at room temperature
Protocol: An aliquot of DOTA-TOC or NODAGA-TOC (3–6 nmol, 1 mg/ml in TraceSelect water) was diluted in 0.25–0.30 ml ammonium acetate (0.5 M, pH 8), followed by the addition of [^61Cu]CuCl2 (30–150 MBq). The reaction mixture was incubated for 15 min at 95°C (DOTA-TOC) or at room temperature (NODAGA-TOC). The pH of the reaction mixture was between 5 and 6. Quality control was performed on a Shimadzu 2020 HPLC system connected to a Berthold radio detector (Flow Star 513).

in vivo [9] = test: in vivo; set-up: species or system mice; settings: BALB/c, mouse, total radioactivity
Protocol: as §1

HEK-SST2 xenografts = settings: female, athymic nude-Foxn1^nu/Foxn1^+, mouse, in vivo, 200 pmol, 1 h

## [^68Ga]Ga-DOTA-Tyr^3-octreotate [[^68Ga]Ga-DOTA-TATE]
[1]
  Effective dose: 0.021-0.0257 mSv/MBq
[2]
  Kidney dose: 9.01 × 10^−2 mGy/MBq
  Total-body absorbed dose: 1.27 × 10^−3 mGy/MBq

## C[C@@H](O)[C@@H]1NC(=O)[C@H](CCCCN)NC(=O)[C@@H](Cc2c[nH]c3ccccc23)NC(=O)[C@H](Cc2ccc(O)cc2)NC(=O)[C@@H](NC(=O)[C@@H](Cc2ccccc2)NC(=O)CCC(C(=O)O)N2CCN(CC(=O)O)CCN(CC(=O)O)CC2)CSSC[C@@H](C(=O)N[C@H](CO)[C@@H](C)O)NC1=O (some centres unmarked) [[^61Cu]Cu-NODAGA-TOC, metal not drawn]
In vivo [3]; Adrenal uptake
  tissue uptake at 1 h: 0.99 ± 0.17 %ID/g
  tissue uptake at 4 h: 0.67 ± 0.26 %ID/g
In vivo [3]; Blood uptake
  tissue uptake at 1 h: 0.22 ± 0.04 %ID/g
  tissue uptake at 4 h: 0.04 ± 0.02 %ID/g
In vivo [3]; Bone uptake
  tissue uptake at 1 h: 0.46 ± 0.17 %ID/g
  tissue uptake at 4 h: 0.31 ± 0.11 %ID/g
In vivo [3]; Heart uptake
  tissue uptake at 1 h: 0.16 ± 0.04 %ID/g
  tissue uptake at 4 h: 0.07 ± 0.03 %ID/g
In vivo [3]; Intestine uptake
  tissue uptake at 1 h: 0.92 ± 0.12 %ID/g
  tissue uptake at 4 h: 0.65 ± 0.23 %ID/g
In vivo [3]; Kidneys uptake
  tissue uptake at 1 h: 12.5 ± 2.25 %ID/g
  tissue uptake at 4 h: 4.36 ± 0.92 %ID/g
In vivo [3]; Liver uptake
  tissue uptake at 1 h: 0.29 ± 0.04 %ID/g
  tissue uptake at 4 h: 0.27 ± 0.09 %ID/g
In vivo [3]; Lung uptake
  tissue uptake at 1 h: 1.09 ± 0.2 %ID/g
  tissue uptake at 4 h: 0.51 ± 0.24 %ID/g
In vivo [3]; Muscle uptake
  tissue uptake at 1 h: 0.16 ± 0.06 %ID/g
  tissue uptake at 4 h: 0.07 ± 0.04 %ID/g
In vivo [3]; Pancreas uptake
  tissue uptake at 1 h: 2.59 ± 0.49 %ID/g
  tissue uptake at 4 h: 0.6 ± 0.21 %ID/g
In vivo [3]; Pituitary uptake
  tissue uptake at 1 h: 3.8 ± 1.35 %ID/g
  tissue uptake at 4 h: 2.97 ± 0.95 %ID/g
In vivo [3]; SST2-tumor uptake
  tissue uptake at 1 h: 8.88 ± 3.19 %ID/g
  tissue uptake at 4 h: 7.39 ± 1.36 %ID/g
In vivo [3]; Spleen uptake
  tissue uptake at 1 h: 0.22 ± 0.05 %ID/g
  tissue uptake at 4 h: 0.1 ± 0.04 %ID/g
In vivo [3]; Stomach uptake
  tissue uptake at 1 h: 2.34 ± 0.43 %ID/g
  tissue uptake at 4 h: 1.22 ± 0.25 %ID/g
[4]; pH 7.4, log D(O/PBS pH 7.4)
  logD: -2.6 ± 0.24
HEK-SST2 cells [5]; after 2 h, 37°C, no further increase at 4 h
  Efflux plateau in the absence of a competitor: approximately 40%
HEK-SST2 cells [5]; after 4 h at 37°C, DOTA-TOC (competitor) added to the medium
  Efflux with competitor: 80%
[6]
  Total absorbed dose, Adrenals: 6.77 × 10^−3 mGy/MBq
  Total absorbed dose, Brain: 1.53 × 10^−5 mGy/MBq
  Total absorbed dose, Breasts: 2.14 × 10^−4 mGy/MBq
  Total absorbed dose, Gallbladder wall: 2.14 × 10^−3 mGy/MBq
  Total absorbed dose, Heart wall: 1.02 × 10^−3 mGy/MBq
  Total absorbed dose, Kidneys: 9.65 × 10^−2 mGy/MBq
  Total absorbed dose, LLI wall: 8.28 × 10^−4 mGy/MBq
  Total absorbed dose, Liver: 4.06 × 10^−3 mGy/MBq
  Total absorbed dose, Lungs: 1.67 × 10^−3 mGy/MBq
  Total absorbed dose, Muscle: 5.63 × 10^−4 mGy/MBq
  Total absorbed dose, Osteogenic cells: 6.57 × 10^−4 mGy/MBq
  Total absorbed dose, Ovaries: 1.19 × 10^−3 mGy/MBq
  Total absorbed dose, Pancreas: 2.23 × 10^−2 mGy/MBq
  Total absorbed dose, Red marrow: 1.07 × 10^−3 mGy/MBq
  Total absorbed dose, Skin: 2.42 × 10^−4 mGy/MBq
  Total absorbed dose, Small intestine: 1.12 × 10^−2 mGy/MBq
  Total absorbed dose, Spleen: 3.49 × 10^−3 mGy/MBq
  Total absorbed dose, Stomach wall: 5.34 × 10^−3 mGy/MBq
  Total absorbed dose, Thymus: 1.98 × 10^−4 mGy/MBq
  Total absorbed dose, Thyroid: 5.27 × 10^−5 mGy/MBq
  Total absorbed dose, Total body: 1.27 × 10^−3 mGy/MBq
  Total absorbed dose, ULI wall: 2.14 × 10^−3 mGy/MBq
  Total absorbed dose, Urinary bladder wall: 3.48 × 10^−4 mGy/MBq
  Total absorbed dose, Uterus: 1.03 × 10^−3 mGy/MBq
HEK-SST2 cells [7]
  Cellular uptake (surface bound + internalized): 70.9 ± 3.5%
[8]; 2 h after end of synthesis
  Radiochemical purity (%) 2 h: 98 ± 1%
[8]; 4 h after end of synthesis
  Radiochemical purity (%) 4 h: 97 ± 1%

## C[C@@H](O)[C@@H]1NC(=O)[C@H](CCCCN)NC(=O)[C@@H](Cc2c[nH]c3ccccc23)NC(=O)[C@H](Cc2ccc(O)cc2)NC(=O)[C@@H](NC(=O)[C@@H](Cc2ccccc2)NC(=O)CCC(C(=O)O)N2CCN(CC(=O)O)CCN(CC(=O)O)CC2)CSSC[C@@H](C(=O)N[C@H](CO)[C@@H](C)O)NC1=O (some centres unmarked) [[64Cu]Cu-NODAGA-TOC, metal not drawn]
In vivo [9]; Adrenal uptake
  tissue uptake at 12 h: 0.32 ± 0.2 %ID/g
  tissue uptake at 24 h: 0.18 ± 0.1 %ID/g
In vivo [9]; Femur uptake
  tissue uptake at 12 h: 0.11 ± 0.04 %ID/g
In vivo [9]; Intestine uptake
  tissue uptake at 12 h: 0.57 ± 0.07 %ID/g
  tissue uptake at 24 h: 0.31 ± 0.05 %ID/g
In vivo [9]; Kidneys uptake
  tissue uptake at 12 h: 2.46 ± 0.85 %ID/g
  tissue uptake at 24 h: 0.66 ± 0.15 %ID/g
In vivo [9]; Liver uptake
  tissue uptake at 12 h: 0.37 ± 0.09 %ID/g
  tissue uptake at 24 h: 0.26 ± 0.02 %ID/g
In vivo [9]; Lung uptake
  tissue uptake at 12 h: 0.51 ± 0.12 %ID/g
  tissue uptake at 24 h: 0.27 ± 0.09 %ID/g
In vivo [9]; Pancreas uptake
  tissue uptake at 12 h: 0.14 ± 0.03 %ID/g
In vivo [9]; Pituitary uptake
  tissue uptake at 12 h: 0.48 ± 0.25 %ID/g
  tissue uptake at 24 h: 0.43 ± 0.29 %ID/g
In vivo [9]; Stomach uptake
  tissue uptake at 12 h: 0.75 ± 0.19 %ID/g
  tissue uptake at 24 h: 0.26 ± 0.04 %ID/g

## C[C@@H](O)[C@@H]1NC(=O)[C@H](CCCCN)NC(=O)[C@@H](Cc2c[nH]c3ccccc23)NC(=O)[C@H](Cc2ccc(O)cc2)NC(=O)[C@@H](NC(=O)[C@@H](Cc2ccccc2)NC(=O)CN2CCN(CC(=O)O)CCN(CC(=O)O)CCN(CC(=O)O)CC2)CSSC[C@@H](C(=O)N[C@H](CO)[C@@H](C)O)NC1=O [[^68Ga]Ga-DOTA-TOC] [[^68Ga]Ga-DOTA-Tyr^3-octreotide, metal not drawn]
[4]; pH 7.4
  log D(O/PBS pH 7.4): −3.18 ± 0.11
HEK-SST2 cells [7]
  Cellular uptake (surface bound + internalized): 79.0 ± 3.1%
[1]
  Effective dose: 0.021-0.0257 mSv/MBq
HEK-SST2 xenografts
  Adrenal uptake: 2.57 ± 0.78 %IA/g
  Blood uptake: 0.63 ± 0.09 %IA/g
  Bone uptake: 0.49 ± 0.07 %IA/g
  Heart uptake: 0.27 ± 0.03 %IA/g
  Intestine uptake: 1.39 ± 0.28 %IA/g
  Kidneys uptake: 8.37 ± 0.84 %IA/g
  Liver uptake: 0.58 ± 0.07 %IA/g
  Lung uptake: 1.68 ± 0.32 %IA/g
  Pancreas uptake: 4.77 ± 1.16 %IA/g
  Pituitary uptake: 3.29 ± 0.63 %IA/g
  SST2-tumor uptake: 6.64 ± 1.11 %IA/g
  Stomach uptake: 3.73 ± 0.36 %IA/g

## C[C@@H](O)[C@@H]1NC(=O)[C@H](CCCCN)NC(=O)[C@@H](Cc2c[nH]c3ccccc23)NC(=O)[C@H](Cc2ccc(O)cc2)NC(=O)[C@@H](NC(=O)[C@@H](Cc2ccccc2)NC(=O)CN2CCN(CC(=O)O)CCN(CC(=O)O)CCN(CC(=O)O)CC2)CSSC[C@@H](C(=O)N[C@H](CO)[C@@H](C)O)NC1=O [[^61Cu]Cu-DOTA-TOC, metal not drawn]
In vivo [3]; Adrenal uptake
  tissue uptake at 1 h: 2.05 ± 0.58 %ID/g
  tissue uptake at 4 h: 1.14 ± 0.5 %ID/g
In vivo [3]; Blood uptake
  tissue uptake at 1 h: 0.38 ± 0.09 %ID/g
  tissue uptake at 4 h: 0.21 ± 0.04 %ID/g
In vivo [3]; Bone uptake
  tissue uptake at 1 h: 0.6 ± 0.16 %ID/g
  tissue uptake at 4 h: 0.5 ± 0.19 %ID/g
In vivo [3]; Heart uptake
  tissue uptake at 4 h: 0.49 ± 0.06 %ID/g
In vivo [3]; Intestine uptake
  tissue uptake at 4 h: 2.06 ± 0.92 %ID/g
In vivo [3]; Kidneys uptake
  tissue uptake at 1 h: 5.32 ± 0.58 %ID/g
  tissue uptake at 4 h: 2.33 ± 0.39 %ID/g
In vivo [3]; Liver uptake
  tissue uptake at 4 h: 2.52 ± 0.56 %ID/g
In vivo [3]; Lung uptake
  tissue uptake at 1 h: 1.96 ± 0.16 %ID/g
  tissue uptake at 4 h: 1.25 ± 0.08 %ID/g
In vivo [3]; Muscle uptake
  tissue uptake at 4 h: 0.16 ± 0.08 %ID/g
In vivo [3]; Pancreas uptake
  tissue uptake at 1 h: 4.29 ± 0.5 %ID/g
  tissue uptake at 4 h: 0.68 ± 0.07 %ID/g
In vivo [3]; Pituitary uptake
  tissue uptake at 1 h: 3 ± 1.32 %ID/g
  tissue uptake at 4 h: 2.43 ± 1.27 %ID/g
In vivo [3]; SST2-tumor uptake
  tissue uptake at 1 h: 7.44 ± 2.33 %ID/g
  tissue uptake at 4 h: 6.85 ± 2.48 %ID/g
In vivo [3]; Spleen uptake
  tissue uptake at 1 h: 0.55 ± 0.08 %ID/g
  tissue uptake at 4 h: 0.37 ± 0.09 %ID/g
In vivo [3]; Stomach uptake
  tissue uptake at 1 h: 4.34 ± 0.5 %ID/g
  tissue uptake at 4 h: 2.09 ± 0.5 %ID/g
